Assay results taken from publication PMC11464796.

Biological target: Msm RNAP core, recombinant (α, ω, β–β′ fusion with C-terminal His8) (Mycobacterium smegmatis) (UniProt A0QSL8)

B1: Msm HelD, wild type, recombinant tag-less (enzyme)
chain: MSGRDYEDELQSERDYVAGLYARLDAERAQSQRRYAAALREHGGTAVERDAEVRALAKDIARLNVADNGLCFGRLDTLDDARLYIGRLGIFDRDNDFEPLLLDWRAPMARPFYVATAANPENMRRRRQFHTLGRKVVDFTDEILGRPTGAEHDATNDAALLAAVNAPRGEGMRDIVATIQAEQDQVIRLDHTGVLVIEGGPGTGKTVVALHRVAYLLYTYRKQMERHGVLVVGPTPAFLDHIGRVLPSLGESDAVFMTPGDFVPGLHVTAEDTPEAAEVKGSLKILDVLKAAVADRQELPSEPIPIDLSDVTMRIDAETAKWARDEARKTGLPHNEARAEFVDVVTYVVTERAVARIGRGWLTRDDKHAWEKMRADVVGELEDHEQFNAALDALWPILTPEDVLAQLYTSHERLRAAGAPECLWRADGEAWTVSDVPLLDELVDLLGRNKAADEAAERERREEEAYAAGVLDLMVDREDLMDDEDHLLAQDLIDAEELADRFKEQDNRELSERAAADREWTYGHVVVDEAQELSEMDWRLLMRRCPRRSFTIVGDLAQRRSPAGARSWGAMLDSYVPGRWVYKSLSVNYRTPAEIMAVAAAVLAEFAPDATPPDSVRACGVAPWARQVTDDDIASAIAEFVSEEAGREGTSVVIGPPDVPGTVPPSETKGLEFDAVLVVEPERILADGPRGAAELYVALTRATQRLGVLYRDALPQALAGLAEGDAAATVEQRTSA
- ATPase activity of the HelD–core and HelD–holoenzyme complexes against free HelD: 2.5 fold
